± gives the standard error. Fewer inactive variants are shown than the library holds.
B1: glmS ribozyme (parent)
chain: AUAAAAGCGCCAGAACUACAGAAAUGUAGUUGACGAGGAGGAGGUUUAUCGAAUUUUCGGCGGAUGCCUCCAAA

Experiments:
Details in all cases: with glucosamine-6-phosphate
[1] = variants of: B1; test: self-cleavage kobs at 640 uM GlcN6P; higher = faster cleavage; RNA array
Procedure, shortened: (§1)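 Tiles bearing barcoded ribozyme variants, transcribed in situ by E. coli RNA polymerase on sequenced MiSeq chips, were imaged over ~14 h at 37 °C using a hybridised Cy3 probe. Glucosamine-6-phosphate was supplied at 40 μM to 10 mM in HEPES/KCl/Mg(OAc)2 buffer. kobs came from one- or two-exponential decay fits to normalised per-tile medians, and weighted Michaelis–Menten fits then provided kcat and KM.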

[2] = variants of: B1; test: self-cleavage kobs at 2500 uM GlcN6P; higher = faster cleavage; RNA array
Procedure, shortened: as §1

[3] = variants of: B1; test: self-cleavage kobs at 10000 uM GlcN6P; higher = faster cleavage; RNA array
Procedure, shortened: as §1

Variant | self-cleavage kobs at 640 uM GlcN6P [1] [s⁻¹] | self-cleavage kobs at 2500 uM GlcN6P [2] [s⁻¹] | self-cleavage kobs at 10000 uM GlcN6P [3] [s⁻¹]
C11U A15G C70U | 0.000677 ± 0.00015 | 0.00215 ± 0.00061 | 
C10A G63A U69A C71U | 0.000215 ± 6.3e-05 |  | 
U31A G43C U45G A52U C70U | < 1e-05 |  | 
A6G U47G C61A A64U | < 1e-05 |  | 
A6U C16U U54A | 4.1e-05 ± 1.3e-05 | 0.000121 ± 3e-05 | 
G13U G29U G32A | 0.000242 ± 7e-05 |  | 
A12U G35U | < 1e-05 |  | 
A12G U57A G60U | < 1e-05 | < 1e-05 | < 1e-05
G38A U45C A52U |  | < 1e-05 | 
A15G A36U G41U C70U | < 1e-05 | < 1e-05 | 
A6C U30A C67G | < 1e-05 |  | 
G13U C16A A39G G40U C68G | < 1e-05 | < 1e-05 | 
G13U U31C G41A | < 1e-05 |  | 
G9A G37A U46C | < 1e-05 |  | 
G13U A15U G32U G62C C68A | 7.42e-05 ± 3.5e-05 |  | 
A12U C19U U69A | 0.000392 ± 0.0001 | 0.000303 ± 6e-05 | 

Variant | self-cleavage kobs at 640 uM GlcN6P [1] [s⁻¹] | self-cleavage kobs at 2500 uM GlcN6P [2] [s⁻¹] | self-cleavage kobs at 10000 uM GlcN6P [3] [s⁻¹]
A14U U31C A39C | 7.42e-05 ± 1.4e-05 | 0.000324 ± 6.8e-05 | 0.000464 ± 6e-05
U31A C58U U69G | 0.000109 ± 4.2e-05 | 7.72e-05 ± 2.2e-05 | 
C8G G32U U47G C67G C68G | 0.000105 ± 3.3e-05 | 4.39e-05 ± 2.1e-05 | 
C16U G32U C34G A53C | < 1e-05 | < 1e-05 | 
G32U A36U G62U | < 1e-05 |  | 
G41A C70A |  | 0.000253 ± 5.4e-05 | 0.00019 ± 2.6e-05
G37A G62C A64U |  | < 1e-05 | 
U31A U47C G51A G66A | < 1e-05 | < 1e-05 | 
A36U U45A C50U U54C U57A | < 1e-05 | < 1e-05 | 
A12G G43A U46G U69G | < 1e-05 | < 1e-05 | 
U31G A36C U49G | 8.9e-05 ± 1.7e-05 | 0.000257 ± 4.5e-05 | 0.000385 ± 6.8e-05
C11U A12G C67A | 8.5e-05 ± 2e-05 | 0.000771 ± 0.00025 | 
A15U A33U C70U | < 1e-05 |  | 
C34G A39U U49G | < 1e-05 |  | 
U30A U31C G32A | 6.3e-05 ± 1.6e-05 | 0.000298 ± 5.8e-05 | 
A15C C16U U45A | 0.000911 ± 0.00018 | 0.00147 ± 0.00058 | 
